B1: NRCoV2-04 VHH-Fc (Fc fusion)
chain: AVQLVDSGGGLVQPGGSLRLSCAASGSPFSNVVMAWYRQAPGKQRERVAFISGGGIADYIMSVKGRFTISRDNAKNTVYLQMNSLKPEDTAVYYCWSSYESTWGQGTQVTVSS
notes: bivalent VHH-Fc
B2: NRCoV2-05 VHH-Fc (Fc fusion)
chain: EVKLVQSGGGLVQPGGSLRLSCAASGFIFSNYAMNWVRQAPGKGLEWVSGINSGGGDTRYADSVKGRFTVSRDNAKNTLYLQMNSLKPEDTGVYYCSKGPVSSYYGSGYDYRGQGTQVTVSS
notes: bivalent VHH-Fc
B3: NRCoV2-10 VHH-Fc (Fc fusion)
chain: QLQLQESGGGLVQPGGSLTLSCAASGNTFSRSNMHWYRQAPGAQREWVAAISSRGISTYAYSAKGRFTISRDNAKNTVSLQMNSLKPEDTAVYYCYAADDLGDYWGQGTQVTVSS
notes: bivalent VHH-Fc
B4: NRCoV2-14 VHH-Fc (Fc fusion)
chain: EVQLVSSGGGLVQAGGSLRLSCEASGTTFSHYAVGWYRQAPGKQREWVASISVFGSTTYGGSVAGRFTISRDNDKNTVDLQMNSLKPEDTAVYYCHAVNADIGGDYWGQGTQVTVSS
notes: bivalent VHH-Fc
B5: NRCoV2-06 VHH-Fc (Fc fusion)
chain: EVQLVQSGGGLVQAGESLRLSCAASVSTFSSYAMGWYRQAPGKQRELVASIGFVGATYYIDSVKGRFTISRDNAKKTAYLQMNDLKPDDTAVYYCNARHYGGSEYWGQGTQVTVSS
notes: bivalent VHH-Fc
B6: NRCoV2-03 VHH-Fc (Fc fusion)
chain: EVQLVSSGGGLVQAGGSLRLSCTASGITFSYYAMGWYRQAPGQPRELVASMSNMDSTIYADSVKGRFTISRDNAKTTIYLQMNNLKPEDTAVYFCNIYGPTYSTRRNEYWGQGTQVTVSS
notes: bivalent VHH-Fc
B7: NRCoV2-S2A4 VHH-Fc (Fc fusion)
chain: QVQLVQSGGGLVQAGGSLRLSCAVSGSPFRSNVMEWYRQAPGKQRELVASISTGGSRTYTDSVKGRFTISRDNAKNEAFLQMNSLKPEDTAVYYCHAAARDSHGIYLLDTWGQGTQVTVSS
notes: bivalent VHH-Fc
B8: NRCoV2-S2F3 VHH-Fc (Fc fusion)
chain: EVQLVQSGGGLVQAGGSLRLSCATSVRILSVPAMGWYRQAPGKEREMVAVITSGGSTNYADSVKGRFTISRDNAKNTVYLQMNSLKLEDTAVYQCNLRDILSQPFWGQGTQVTVSS
notes: bivalent VHH-Fc
B9: NRCoV2-MRed18 VHH-Fc (Fc fusion)
chain: EVQLVESGGGLVQPGGSLRLSCAASTTVFGRNAMGWYRQAPGKERELVATVSDGGTPNYADSVKGRFTISRDNAKNTIYLQMNSLEPEDTAVYYCNYYNYYYGRNFWGQGTQVTVSS
notes: bivalent VHH-Fc
B10: NRCoV2-MRed19 VHH-Fc (Fc fusion)
chain: EVQLVESGGGLVQPGGSLRLSCAASTIIFKGQTMGWFRQAPGNERELVATMTTSGSANYADSVKGRFTISRDNEKTVTLQMNSLKPEDTALYYCYMHSVYYGIDYWGKGTQVTVSS
notes: bivalent VHH-Fc
B11: NRCoV2-MRed20 VHH-Fc (Fc fusion)
chain: EVQLVESGGGSVQAGGSLRLSCAASGLSFSSYDMGWFRQAPGKEREFVAAIRESGSGTYYADSVKGRFTISRDNAKNTVYLQVSSLKPEDTAVYTCAAKPPFYGSGTYSTPRAYLYWGQGTQVTVSS
notes: bivalent VHH-Fc
B12: NRCoV2-MRed22 VHH-Fc (Fc fusion)
chain: EVQLVESGGGLVQPGGSLRLSCAASGSVFASNAMGWYRQAPGKQRELVATISSRGSTNYADSVKGRFTISRDNAKNTVYLQMNSLGPEDTAVYYCNAREFTGFDYWGQGTQVTVSS
notes: bivalent VHH-Fc
B13: NRCoV2-S2G3 VHH-Fc (Fc fusion)
chain: QVQLVQSGGGSVQAGGSLRLSCAASGSTFGIFLMGWRRQAPGKQRELVAHITSGGATNYADSVKGRFTISRDNAKNTVYLQMNSLEPEDTAVYYCYTTKRDDASVYWGQGTQVTVSS
notes: bivalent VHH-Fc
B14: NRCoV2-S2G4 VHH-Fc (Fc fusion)
chain: QVQLVQSGGGLVQAGGSLTLSCAPSGSTFSGYATNWYRQAPGKQRELVATISSDGDKNYADSVKGRFTISRDNAKNTVYLQMNSLKPEDTAVYYCNKHWWTGDWWGQGTQVTVSS
notes: bivalent VHH-Fc
B15: NRCoV2-SR01 VHH-Fc (Fc fusion)
chain: EVQLVQSGGGSVQAGGSLRLSCVASGFTFDNYAIGWFRQAPGKEREGVSCISGNGGVTIYADSVKGRFTISRDNAKNLVYLQMNSLKPEDTAVYYCAATGIRSTWSVYGCSRLAGPYDYWGQGTQVTVSS
notes: bivalent
B16: NRCoV2-SR02 VHH-Fc (Fc fusion)
chain: EVQLVDSGGGLVQAGGSLRLSCTASEFTLNYYSIGWFRQSPGKEREGVSCIRYSGGGIDYADSVKGRFTISRDNAKNTVYLTMNSLKPEDTAVYYCAADRLYSRACPTAGGRNYWGQGTQVTVSS
notes: bivalent
B17: NRCoV2-SR03 VHH-Fc (Fc fusion)
chain: AVQLVDSGGGLVQAGGSLRLSCAASGSIFSNNHMGWYRQAPGKQRELVAAISSGGKTNYADFAKGRFTISRDNAKNMVYLQMNSLKPEDTAVYYCNRGGWEYRSSYYIMGPHWGQGTQVTVSS
notes: bivalent
B18: NRCoV2-SR04 VHH-Fc (Fc fusion)
chain: QVQLVESGGGLVQAGGSLRLSCAASGRTFSSHTVGWYRQAPGKQRDLVAAISMGGNTNYADYADSVKGRFTISRDNAKNTLYLQMNSLKPEDTAVYYCNTAALVGNRLLPMATITWGQGTQVTVSS
notes: bivalent
B19: NRCoV2-SR13 VHH-Fc (Fc fusion)
chain: EVQLVESGGGLVTTGGSLRLSCATSGSRFGSKHMAWYRQAPGKQRDLVAAISSGGSTHYGSSVKGRFTISRDNAKSTVYLQMNSLNPEDTAVFYCNMGGWDYRSNTYIPGSRSDYWGQGTQVTVSS
notes: bivalent
B20: NRCoV2-SR16 VHH-Fc (Fc fusion)
chain: QVQLVQSAGGLVQAGGSLRLSCVVSGTTFSRYHMGWHRQAPGKQRDFVAGISTSGAVTYADSAKGRFTISRDNAKNTVYLEMNSLKLEDTALYYCNTGGWDYRSSTFIMGLNWGQGTQVTVSS
notes: bivalent
B21: NRCoV2-MRed03 VHH-Fc (Fc fusion)
chain: EVQLVESGGGLVQPGGSLRLSCAAIGFTLDYYAIGWFRQAPGKEREGVSCISSSDGSTYYADSVKGRFTISRDNAKNTVYLQMNSLKPEDTAVYYCATDAFATCDSWYAQIAQYDFRGQGTQVTVSS
notes: bivalent
B22: NRCoV2-MRed06 VHH-Fc (Fc fusion)
chain: EVQLVESGGGLVQAGGSLRLSCAASGFTLAYYAIGWFRQAPGKEREGVSCISSSDGSAHYADSVKGRFTISRDNAKNTVSLQMNSLKPEDTAVYYCATDSFSSCSDYESGMDFWGKGTQVTVSS
notes: bivalent

The binders below were run against T1, SARS-CoV-2 S2 (aa686-1208) (Wuhan) (SARS-CoV-2 Wuhan, UniProt P0DTC2 686-1208) (assay: ELISA).
T1 construct: NRC; FLAG, 6xHis tags
B1: no binding (tested: 13 nM). B2: no binding (tested: 13 nM). B3: no binding (tested: 13 nM). B4: no binding (tested: 13 nM). B5: no binding (tested: 13 nM). B6: no binding (tested: 13 nM).

These binders were tested against T2, SARS-CoV-2 S1-NTD (aa16-305) (SARS-CoV-2 Wuhan, UniProt P0DTC2 16-305) (assay: ELISA).
B1: no binding (tested: 13 nM). B2: no binding (tested: 13 nM). B3: no binding (tested: 13 nM). B4: no binding (tested: 13 nM). B5: no binding (tested: 13 nM). B6: no binding (tested: 13 nM). B7: no binding (tested: 13 nM). B8: no binding (tested: 13 nM). B9: no binding (tested: 13 nM). B10: no binding (tested: 13 nM). B11: no binding (tested: 13 nM). B12: no binding (tested: 13 nM). B13: no binding (tested: 13 nM). B14: no binding (tested: 13 nM).

These binders were tested against T3, SARS-CoV-2 S1 (aa16-685) (Wuhan) (SARS-CoV-2 Wuhan, UniProt P0DTC2 16-685) (assay: ELISA).
T3 construct: NRC; FLAG, 6xHis tags
B7: no binding (tested: 13 nM). B8: no binding (tested: 13 nM). B9: no binding (tested: 13 nM). B10: no binding (tested: 13 nM). B11: no binding (tested: 13 nM). B12: no binding (tested: 13 nM). B13: no binding (tested: 13 nM). B14: no binding (tested: 13 nM).

These binders were tested against SARS-CoV spike (S) (SARS-CoV, UniProt P59594 14-1195) (assay: ELISA).
B1: no binding (tested: 13 nM). B2: no binding (tested: 13 nM). B3: no binding (tested: 13 nM). B4: no binding (tested: 13 nM). B5: no binding (tested: 13 nM). B6: no binding (tested: 13 nM). B12: no binding (tested: 13 nM).

What follows are binders tested against T2, SARS-CoV-2 S1-NTD (aa16-305) (assay: ELISA, coated antigen, apparent EC50).
With B15 the EC50 was 0.19 nM. For B16, the EC50 was 0.34 nM. B17 was tested, and the EC50 was 0.17 nM. B18 was tested, and the EC50 was 0.17 nM. B19 showed an EC50 of 0.23 nM. For B20, the EC50 was 0.36 nM. B21 gave an EC50 of 0.7 nM. B22 gave an EC50 of 0.4 nM.

The binders below were run against T4, SARS-CoV-2 spike trimer S (Wuhan, SmT1) (SARS-CoV-2 Wuhan) (assay: ELISA, coated antigen, apparent EC50).
T4 construct: extracellular domain
Work on B15 yielded an EC50 of 0.13 nM. Binder B16 has an EC50 of 0.11 nM. B17 showed an EC50 of 0.16 nM. Work on B18 yielded an EC50 of 0.2 nM. In the case of B19, the EC50 is reported as 0.43 nM. B20 showed an EC50 of 0.59 nM. With B21 the EC50 was 0.2 nM. B22 showed an EC50 of 0.4 nM.

The binders below were run against T3, SARS-CoV-2 S1 (aa16-685) (Wuhan) (assay: ELISA, coated antigen, apparent EC50).
In the case of B15, the EC50 is reported as 0.23 nM. B16 showed an EC50 of 0.13 nM. For B17, the EC50 was 0.2 nM. In the case of B18, the EC50 is reported as 0.25 nM. Work on B19 yielded an EC50 of 0.43 nM. B20 gave an EC50 of 2.7 nM. B21 was tested, and the EC50 was 0.48 nM. Work on B22 yielded an EC50 of 0.59 nM.

What follows are binders tested against T5, SARS-CoV-2 S on CHO-S cells (SARS-CoV-2, UniProt P0DTC2 14-1273) (assay: flow cytometry, CHO-S cells).
T5 construct: whole, on cells
B1 showed a Bmax of 15500 and an EC50 of 1.3 nM. Work on B2 yielded a Bmax of 17400 and an EC50 of 0.5 nM. In the case of B3, the Bmax is reported as 28000 and the EC50 is reported as 1.3 nM. B4 showed a Bmax of 18800 and an EC50 of 0.9 nM. B5 was tested, and the Bmax was 13600 and the EC50 was 8.1 nM. With B6 the Bmax was 16200 and the EC50 was 78.9 nM. Work on B7 yielded a Bmax of 6860 and an EC50 of 0.1 nM. Binder B8 has a Bmax of 6950 and an EC50 of 2.7 nM. With B9 the Bmax was 10200 and the EC50 was 0.9 nM. B10 was tested, and the Bmax was 5480 and the EC50 was 1.3 nM. B11 was tested, and the Bmax was 6660 and the EC50 was 6.5 nM. B12 gave a Bmax of 5320 and an EC50 of 0.2 nM. Binder B13 has a Bmax of 7530 and an EC50 of 0.3 nM. With B14 the Bmax was 6900 and the EC50 was 0.3 nM.

Source: US20240270826A1 (NATIONAL RESEARCH COUNCIL OF CANADA, published 2024)
